Measured values reported in patent US20240018255A1.

Key:
[1] = molecular target: SIRPα V4 fusion Fc (mouse IgG2a) (human; mouse); test: ELISA, plate coated with SIRPα V4-Fc (mouse IgG2a), anti-hFab secondary, OD450
[2] = molecular target: SIRPα V6 fusion Fc (mouse IgG2a) (human; mouse); test: ELISA, plate coated with SIRPα V6-Fc (mouse IgG2a), anti-hFab secondary, OD450
[3] = molecular target: SIRPα V9 fusion Fc (mouse IgG2a) (human; mouse); test: ELISA, plate coated with SIRPα V9-Fc (mouse IgG2a), anti-hFab secondary, OD450
SIRPα V9 fusion Fc (mouse IgG2a) (human; mouse), sequence (chain, as listed by the source limits assumed): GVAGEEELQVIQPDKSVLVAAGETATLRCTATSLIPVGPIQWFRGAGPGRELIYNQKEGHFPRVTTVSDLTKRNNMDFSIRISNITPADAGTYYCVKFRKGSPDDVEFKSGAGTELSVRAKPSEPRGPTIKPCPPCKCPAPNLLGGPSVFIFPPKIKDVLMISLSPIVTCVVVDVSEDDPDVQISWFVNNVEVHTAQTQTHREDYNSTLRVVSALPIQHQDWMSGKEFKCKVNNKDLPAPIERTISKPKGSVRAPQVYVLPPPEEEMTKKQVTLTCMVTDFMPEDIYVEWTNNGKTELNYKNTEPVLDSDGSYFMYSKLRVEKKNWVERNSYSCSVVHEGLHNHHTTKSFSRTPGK

[4] = molecular target: SIRPα V1 fusion Fc (mouse IgG2a) (human; mouse); test: ELISA, plate coated with SIRPα V1-Fc (mouse IgG2a), anti-hFab secondary, OD450; unit from the axis Log(Conc.(nM))
SIRPα V1 fusion Fc (mouse IgG2a) (human; mouse), sequence (chain, as listed by the source limits assumed): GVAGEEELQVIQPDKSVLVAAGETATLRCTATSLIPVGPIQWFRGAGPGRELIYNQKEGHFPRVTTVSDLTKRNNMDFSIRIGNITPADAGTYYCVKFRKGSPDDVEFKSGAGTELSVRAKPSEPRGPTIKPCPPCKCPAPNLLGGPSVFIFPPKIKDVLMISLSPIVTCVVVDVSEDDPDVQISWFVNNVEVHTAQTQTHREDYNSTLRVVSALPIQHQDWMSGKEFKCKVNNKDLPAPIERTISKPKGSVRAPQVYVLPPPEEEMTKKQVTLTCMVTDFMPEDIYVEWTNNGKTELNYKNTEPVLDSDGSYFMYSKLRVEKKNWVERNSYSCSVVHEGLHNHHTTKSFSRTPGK

[5] = molecular target: SIRPα V5 fusion Fc (mouse IgG2a) (human; mouse); test: ELISA, plate coated with SIRPα V5-Fc (mouse IgG2a), anti-hFab secondary, OD450; unit from the axis Log(Conc.(nM))
SIRPα V5 fusion Fc (mouse IgG2a) (human; mouse), sequence (chain, as listed by the source limits assumed): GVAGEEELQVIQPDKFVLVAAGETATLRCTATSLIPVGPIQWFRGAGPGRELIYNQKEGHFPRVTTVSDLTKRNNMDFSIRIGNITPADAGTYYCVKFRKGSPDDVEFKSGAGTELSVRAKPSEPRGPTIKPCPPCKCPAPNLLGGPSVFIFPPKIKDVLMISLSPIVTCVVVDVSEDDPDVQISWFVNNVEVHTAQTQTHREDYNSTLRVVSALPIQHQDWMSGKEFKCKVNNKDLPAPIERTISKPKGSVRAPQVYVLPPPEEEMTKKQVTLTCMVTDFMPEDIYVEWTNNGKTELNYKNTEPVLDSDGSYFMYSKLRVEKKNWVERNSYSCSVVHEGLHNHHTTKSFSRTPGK

[6] = molecular target: SIRPα V2 fusion Fc (mouse IgG2a) (human; mouse); test: ELISA, plate coated with SIRPα V2-Fc (mouse IgG2a), anti-hFab secondary, OD450; fit value of a flat curve, see non_binding
SIRPα V2 fusion Fc (mouse IgG2a) (human; mouse), sequence (chain, as listed by the source limits assumed): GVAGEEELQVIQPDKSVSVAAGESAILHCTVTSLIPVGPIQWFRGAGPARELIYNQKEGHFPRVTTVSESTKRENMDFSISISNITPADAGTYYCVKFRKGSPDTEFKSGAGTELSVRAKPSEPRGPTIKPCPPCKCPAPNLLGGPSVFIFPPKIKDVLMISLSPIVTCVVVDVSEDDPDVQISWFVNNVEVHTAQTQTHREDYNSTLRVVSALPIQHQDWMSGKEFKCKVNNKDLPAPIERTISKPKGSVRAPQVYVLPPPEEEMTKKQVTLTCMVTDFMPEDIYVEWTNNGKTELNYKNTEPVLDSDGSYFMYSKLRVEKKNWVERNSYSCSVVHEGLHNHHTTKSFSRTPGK

[7] = molecular target: SIRPα V10 fusion Fc (mouse IgG2a) (human; mouse); test: ELISA, plate coated with SIRPα V10-Fc (mouse IgG2a), anti-hFab secondary, OD450; fit value of a flat curve, see non_binding
SIRPα V10 fusion Fc (mouse IgG2a) (human; mouse), sequence (chain, as listed by the source limits assumed): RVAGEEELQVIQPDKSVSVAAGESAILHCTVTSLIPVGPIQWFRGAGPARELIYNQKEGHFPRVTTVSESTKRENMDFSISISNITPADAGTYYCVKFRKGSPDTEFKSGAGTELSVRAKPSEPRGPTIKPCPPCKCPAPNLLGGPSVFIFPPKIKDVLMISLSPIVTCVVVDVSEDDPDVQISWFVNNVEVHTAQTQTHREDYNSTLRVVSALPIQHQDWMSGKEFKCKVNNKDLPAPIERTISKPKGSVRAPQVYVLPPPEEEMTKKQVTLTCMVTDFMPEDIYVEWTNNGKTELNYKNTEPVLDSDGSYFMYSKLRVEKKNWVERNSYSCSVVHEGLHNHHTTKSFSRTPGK

SIRPα V6 fusion Fc (mouse IgG2a) (human; mouse), sequence (chain, as listed by the source limits assumed): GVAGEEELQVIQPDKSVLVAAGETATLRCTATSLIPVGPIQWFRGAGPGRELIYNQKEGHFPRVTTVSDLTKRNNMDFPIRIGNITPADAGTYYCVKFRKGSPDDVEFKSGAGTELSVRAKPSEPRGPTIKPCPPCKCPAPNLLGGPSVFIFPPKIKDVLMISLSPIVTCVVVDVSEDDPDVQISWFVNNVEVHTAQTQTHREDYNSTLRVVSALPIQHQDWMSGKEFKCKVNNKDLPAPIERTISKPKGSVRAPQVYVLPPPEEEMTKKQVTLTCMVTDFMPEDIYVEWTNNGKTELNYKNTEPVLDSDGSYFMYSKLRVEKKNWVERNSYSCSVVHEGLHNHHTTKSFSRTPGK
SIRPα V4 fusion Fc (mouse IgG2a) (human; mouse), sequence (chain, as listed by the source limits assumed): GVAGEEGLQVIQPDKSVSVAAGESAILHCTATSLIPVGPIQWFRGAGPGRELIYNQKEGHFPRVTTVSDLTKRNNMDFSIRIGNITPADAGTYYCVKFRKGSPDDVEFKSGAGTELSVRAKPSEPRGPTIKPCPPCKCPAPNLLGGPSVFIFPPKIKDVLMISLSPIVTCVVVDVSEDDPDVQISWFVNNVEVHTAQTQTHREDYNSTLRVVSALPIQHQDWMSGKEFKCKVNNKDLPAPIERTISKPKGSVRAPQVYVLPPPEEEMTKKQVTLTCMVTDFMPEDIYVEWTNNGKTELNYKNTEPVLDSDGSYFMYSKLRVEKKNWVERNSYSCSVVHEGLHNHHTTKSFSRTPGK

- EC50 (read off the curve) [1]: 100 pM
- EC50 (read off the curve) [2]: 100 pM
- EC50 (read off the curve) [3]: 200 pM
- EC50 [4]: 154 pM
- EC50 [5]: 130 pM
- EC50 [6]: 55.4 pM
- EC50 [7]: 55.4 pM
B1: anti-SIRPα antibody 18D5 of OSE Company (antibody, from a related filing, V domains shown)
VH: QVQLQQPGAELVRPGSSVKLSCKASGYTFTSYWVHWVKQRPIQGLEWIGNIDPSDSDTHYNQKFKDKASLTVDKSSSTAYMQLSSLTFEDSAVYYCVRGGTGTMAWFAYWGQGTLVTVSA
VL: DVVMTQTPLSLPVSLGDQASISCRSSQSLVHSYGNTYLYWYLQKPGQSPKLLIYRVSNRFSGVPDRFSGSGSGTDFTLKISRVEAEDLGVYFCFQGTHVPYTFGSGTKLEIKR
